Measured values from paper PMC2430334.

Target: T1, rOxyR (Porphyromonas gingivalis 33277?) (UniProt B2RHP2)
T1 sequence: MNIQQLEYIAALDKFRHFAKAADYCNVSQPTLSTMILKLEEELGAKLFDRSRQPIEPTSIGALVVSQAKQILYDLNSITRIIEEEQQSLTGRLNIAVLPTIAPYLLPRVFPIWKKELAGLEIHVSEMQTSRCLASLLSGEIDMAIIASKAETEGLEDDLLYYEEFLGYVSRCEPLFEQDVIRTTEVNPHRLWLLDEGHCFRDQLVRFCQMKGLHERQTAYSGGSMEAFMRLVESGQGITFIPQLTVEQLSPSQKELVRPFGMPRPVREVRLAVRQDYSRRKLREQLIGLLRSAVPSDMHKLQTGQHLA
Experiment: EMSA

| Sequence | binding |
| --- | --- |
| CTTTTCGCCCGAAGGTTTTATCTTCCGGCCGGAGCTTTCGGATGAGATCAACTACCTTTTCGTCATGGAATGAATCGGTTTTTACGACCAAGATTCGAACCTTTTTCCGTTCATCATGTTCTTATAATGATTAAAAAGTTGTCGGTGTCGGTTTTACACTGCTCCGATACAAATTATTAAAAGACTTAATTACAATAAAAATCAGACGTT (double strand) [sod promoter region] | binds |
| CGTCTTACCGGCTTCCCTATAGCAAAGGAAAGCATTTTTTTCTACTAAAAATTAATTCTAACAATATTCTGCTGTCTTCTACGTGTTTATACGCAGAAAAACGAAAAAAAACCGCACTACTCAATAAAAAAAACGCGATATTGACCCTCGCGAGAG (double strand) [mfa1 promoter region] | no binding |
